Here are results for 9 molecules from US20220213213A1.

The target in experiment [1] is human/mouse 5T4 chimera E1 (human/mouse chimera) (UniProt Q13641). Kind of experiment: flow cytometry, chimera-transfected cells. (Flow cytometry measures light scatter and fluorescence of single cells or particles in a stream.)
Experiment [2] addresses human/mouse 5T4 chimera E7 (human/mouse chimera) (UniProt Q13641). The experiment is described as follows: flow cytometry, chimera-transfected cells.
Experiment [3] deals with human/mouse 5T4 chimera E3 (human/mouse chimera) (UniProt Q13641). Kind of experiment: flow cytometry, chimera-transfected cells.
Experiment [4] has as its target human/mouse 5T4 chimera E5 (human/mouse chimera) (UniProt Q13641). Kind of experiment: flow cytometry, chimera-transfected cells.
The target in experiment [5] is human/mouse 5T4 chimera E2 (human/mouse chimera) (UniProt Q13641). The experiment is described as follows: flow cytometry, chimera-transfected cells.
The target in experiment [6] is human/mouse 5T4 chimera E4 (human/mouse chimera) (UniProt Q13641). Kind of experiment: flow cytometry, chimera-transfected cells.
Experiment [7] has as its target human/mouse 5T4 chimera E6 (human/mouse chimera) (UniProt Q13641). Kind of experiment: flow cytometry, chimera-transfected cells.
Experiment [8] addresses human/mouse CD137 chimera 1554 (human/mouse chimera) (UniProt Q07011). Kind of experiment: flow cytometry, transfected 293-F cells.
The target in experiment [9] is human/mouse CD137 chimera 1552 (human/mouse chimera) (UniProt Q07011). The experiment is described as follows: flow cytometry, transfected 293-F cells.
The target in experiment [10] is human/mouse CD137 chimera 1553 (human/mouse chimera) (UniProt Q07011). The experiment is described as follows: flow cytometry, transfected 293-F cells.
Experiment [11] concerns the target human/mouse CD137 chimera 1555 (human/mouse chimera) (UniProt Q07011). The experiment is described as follows: flow cytometry, transfected 293-F cells.
For experiment [12], the target named is human/mouse CD137 chimera 1551 (human/mouse chimera) (UniProt Q07011). Kind of experiment: flow cytometry, transfected 293-F cells.
Experiment [13] has as its target human/mouse CD137 chimera 1550 (human/mouse chimera) (UniProt Q07011). Kind of experiment: flow cytometry, transfected 293-F cells.
Experiment [14] deals with human/mouse CD137 chimera 1554 (human/mouse chimera) (UniProt Q07011). Kind of experiment: flow cytometry, transfected 293-F cells, Exp 1.
Experiment [15] has as its target human/mouse CD137 chimera 1552 (human/mouse chimera) (UniProt Q07011). Kind of experiment: flow cytometry, transfected 293-F cells, Exp 1.
The target of experiment [16] is human/mouse CD137 chimera 1553 (human/mouse chimera) (UniProt Q07011). Kind of experiment: flow cytometry, transfected 293-F cells, Exp 1.
In experiment [17] the target is human/mouse CD137 chimera 1555 (human/mouse chimera) (UniProt Q07011). The experiment is described as follows: flow cytometry, transfected 293-F cells, Exp 1.
Experiment [18] deals with human/mouse CD137 chimera 1551 (human/mouse chimera) (UniProt Q07011). The experiment is described as follows: flow cytometry, transfected 293-F cells, Exp 1.
Experiment [19] addresses human/mouse CD137 chimera 1550 (human/mouse chimera) (UniProt Q07011). Kind of experiment: flow cytometry, transfected 293-F cells, Exp 1.
The target in experiment [20] is human/mouse CD137 chimera 1554 (human/mouse chimera) (UniProt Q07011). Kind of experiment: flow cytometry, transfected 293-F cells, Exp 2.
For experiment [21], the target named is human/mouse CD137 chimera 1552 (human/mouse chimera) (UniProt Q07011). The experiment is described as follows: flow cytometry, transfected 293-F cells, Exp 2.
Experiment [22] deals with human/mouse CD137 chimera 1553 (human/mouse chimera) (UniProt Q07011). The experiment is described as follows: flow cytometry, transfected 293-F cells, Exp 2.
Experiment [23] addresses human/mouse CD137 chimera 1555 (human/mouse chimera) (UniProt Q07011). Kind of experiment: flow cytometry, transfected 293-F cells, Exp 2.
For experiment [24], the target named is human/mouse CD137 chimera 1551 (human/mouse chimera) (UniProt Q07011). The experiment is described as follows: flow cytometry, transfected 293-F cells, Exp 2.
Experiment [25] concerns the target human/mouse CD137 chimera 1550 (human/mouse chimera) (UniProt Q07011). The experiment is described as follows: flow cytometry, transfected 293-F cells, Exp 2.

B1: 1206/1207 (antibody, V domains shown)
VH: EVQLLESGGGLVQPGGSLRLSCAASGFTFSGSSMSWVRQAPGKGLEWVSSIYYSGSGTYYADSVKGRFTISRDNSKNTLYLQMNSLRAEDTAVYYCARYGRNVHPYNLDYWGQGTLVTVSS
VL: DIQMTQSPSSLSASVGDRVTITCRASQSISSYLNWYQQKPGKAPKLLIYAASSLQSGVPSRFSGSGSGTDFTLTISSLQPEDFATYYCQQGYYYLPTFGQGTKLEIK
In the case of B1, the normalized % positive cells in experiment [1] is 0.96; in experiment [2] it was 0.94; in experiment [3], 0.25; in [4] it was 0.9; in [5], 0.74; in experiment [6], 0.52. Also, the normalized % positive cells in [7] was found to be 0.94.

B2: 1618/1619 (antibody, V domains shown)
VH: EVQLLESGGGLVQPGGSLRLSCAASGFTFSYGSMYWVRQAPGKGLEWVSSISSGSGSTYYADSVKGRFTISRDNSKNTLYLQMNSLRAEDTAVYYCARSSYYGSYYSIDYWGQGTLVTVSS
VL: DIQMTQSPSSLSASVGDRVTITCRASQSISSYLNWYQQKPGKAPKLLIYAASSLQSGVPSRFSGSGSGTDFTLTISSLQPEDFATYYCQQYYDNLPTFGQGTKLEIK
B2: the relative MFI normalized to full-length human CD137 in experiment [8] was 1.01; in experiment [9] it was 1.2; in [10] it was 1.24; in experiment [11] it was 0.12; in experiment [12], 0.67; in experiment [13], 0.11.

B3: 1200/1201 (antibody, V domains shown)
VH: EVQLLESGGGLVQPGGSLRLSCAASGFTFSSYAMSWVRQAPGKGLEWVSGISGGGGGTYYADSVKGRFTISRDNSKNTLYLQMNSLRAEDTAVYYCARDVAYFDYWGQGTLVTVSS
VL: DIQMTQSPSSLSASVGDRVTITCRASQSISSYLNWYQQKPGKAPKLLIYAASSLQSGVPSRFSGSGSGTDFTLTISSLQPEDFATYYCQQYYIPHTFGQGTKLEIK
In the case of B3, the relative MFI normalized to full-length human CD137 in experiment [8] worked out at 0.84; in experiment [9], 0.05; in experiment [10], 0.65; in [11], 0.24; in experiment [12], 0.04; in [13] it was 0.05.

B4: 1620/1621 (antibody, V domains shown)
VH: EVQLLESGGGLVQPGGSLRLSCAASGFTFSGYYMYWVRQAPGKGLEWVSGISSSGSYTYYADSVKGRFTISRDNSKNTLYLQMNSLRAEDTAVYYCARSVGPYFDYWGQGTLVTVSS
VL: DIQMTQSPSSLSASVGDRVTITCRASQSISSYLNWYQQKPGKAPKLLIYAASSLQSGVPSRFSGSGSGTDFTLTISSLQPEDFATYYCQQGVGPYTFGQGTKLEIK
As to B4, the relative MFI normalized to full-length human CD137 in experiment [8] stood at 0.17; in [9], 0.18; in experiment [10], 0.17; in experiment [11], 0.32; in experiment [12] it was 0.33; in [13], 0.17.

B5: 1214/1215 (antibody, V domains shown)
VH: EVQLLESGGGLVQPGGSLRLSCAASGFTFSSYAMSWVRQAPGKGLEWVSSIGSGGGYTGYADSVKGRFTISRDNSKNTLYLQMNSLRAEDTAVYYCARVGHPFDYWGQGTLVTVSS
VL: DIQMTQSPSSLSASVGDRVTITCRASQSISSYLNWYQQKPGKAPKLLIYAASSLQSGVPSRFSGSGSGTDFTLTISSLQPEDFATYYCQQDAYPHTFGQGTKLEIK
With B5, the relative MFI normalized to full-length human CD137 in experiment [14] is 0.26; in [15], 0.32; in experiment [16], 0.41; in [17] it was 0.3; in experiment [18], 0.07; in experiment [19], 0.06. In addition, the relative MFI normalized to full-length human CD137 in experiment [20] was 0.15; in experiment [21] it was 0.13; in experiment [22] it was 0.15; in experiment [23] it was 0.45; in [24], 0.15; in experiment [25], 0.14.

B6: 1212/1213 (antibody, V domains shown)
VH: EVQLLESGGGLVQPGGSLRLSCAASGFTFSSYAMSWVRQAPGKGLEWVSYISSYGGYTSYADSVKGRFTISRDNSKNTLYLQMNSLRAEDTAVYYCARYHSGVLDYWGQGTLVTVSS
VL: DIQMTQSPSSLSASVGDRVTITCRASQSISSYLNWYQQKPGKAPKLLIYAASSLQSGVPSRFSGSGSGTDFTLTISSLQPEDFATYYCQQYYYHYLLTFGQGTKLEIK
Turning to B6, the normalized % positive cells in experiment [1] was 0.89; in [2], 0.88; in [3], 0.93; in experiment [4], 0.84; in experiment [5], 0.9; in experiment [6], 1. The molecule further yielded a normalized % positive cells in experiment [7] of 0.03.

B7: 1626/1627 (antibody, V domains shown)
VH: EVQLLESGGGLVQPGGSLRLSCAASGFTFGGYSMYWVRQAPGKGLEWVSSIGGYYYSTYYADSVKGRFTISRDNSKNTLYLQMNSLRAEDTAVYYCARSYYGSIDYWGQGTLVTVSS
VL: DIQMTQSPSSLSASVGDRVTITCRASQSISSYLNWYQQKPGKAPKLLIYAASSLQSGVPSRFSGSGSGTDFTLTISSLQPEDFATYYCQQGTGYGPLTFGQGTKLEIK
As for B7, the relative MFI normalized to full-length human CD137 in experiment [8] was 0.12; in experiment [9], 0.11; in experiment [10] it was 0.14; in experiment [11] it was 0.29; in [12] it was 0.11; in experiment [13], 0.1.

B8: 1204/1205 (antibody, V domains shown)
VH: EVQLLESGGGLVQPGGSLRLSCAASGFTFSSYYMGWVRQAPGKGLEWVSGIGSYYGYTGYADSVKGRFTISRDNSKNTLYLQMNSLRAEDTAVYYCARAYYDYNYYYAYFDYWGQGTLVTVSS
VL: DIQMTQSPSSLSASVGDRVTITCRASQSISSYLNWYQQKPGKAPKLLIYAASSLQSGVPSRFSGSGSGTDFTLTISSLQPEDFATYYCQQSVPHYPFTFGQGTKLEIK
Take B8: the relative MFI normalized to full-length human CD137 in [8] is 0.73; in experiment [9] it was 0.13; in [10], 0.85; in experiment [11], 0.28; in [12], 0.11; in experiment [13] it was 0.07.

B9: 1202/1203 (antibody, V domains shown)
VH: EVQLLESGGGLVQPGGSLRLSCAASGFTFYGSSMSWVRQAPGKGLEWVSSIYYGSSGTYYADSVKGRFTISRDNSKNTLYLQMNSLRAEDTAVYYCARSYYGYFDYWGQGTLVTVSS
VL: DIQMTQSPSSLSASVGDRVTITCRASQSISSYLNWYQQKPGKAPKLLIYAASSLQSGVPSRFSGSGSGTDFTLTISSLQPEDFATYYCQQYYTVVPFTFGQGTKLEIK
Regarding B9, the relative MFI normalized to full-length human CD137 in [8] amounted to 0.51; in experiment [9], 0.06; in experiment [10] it was 0.65; in experiment [11], 0.26; in experiment [12], 0.05; in [13] it was 0.05.
